This series deals with T1, LshC2c2 (Cas13a) wild type (Leptotrichia shahii, UniProt P0DOC6 SEQ:1-1389).
T1 sequence: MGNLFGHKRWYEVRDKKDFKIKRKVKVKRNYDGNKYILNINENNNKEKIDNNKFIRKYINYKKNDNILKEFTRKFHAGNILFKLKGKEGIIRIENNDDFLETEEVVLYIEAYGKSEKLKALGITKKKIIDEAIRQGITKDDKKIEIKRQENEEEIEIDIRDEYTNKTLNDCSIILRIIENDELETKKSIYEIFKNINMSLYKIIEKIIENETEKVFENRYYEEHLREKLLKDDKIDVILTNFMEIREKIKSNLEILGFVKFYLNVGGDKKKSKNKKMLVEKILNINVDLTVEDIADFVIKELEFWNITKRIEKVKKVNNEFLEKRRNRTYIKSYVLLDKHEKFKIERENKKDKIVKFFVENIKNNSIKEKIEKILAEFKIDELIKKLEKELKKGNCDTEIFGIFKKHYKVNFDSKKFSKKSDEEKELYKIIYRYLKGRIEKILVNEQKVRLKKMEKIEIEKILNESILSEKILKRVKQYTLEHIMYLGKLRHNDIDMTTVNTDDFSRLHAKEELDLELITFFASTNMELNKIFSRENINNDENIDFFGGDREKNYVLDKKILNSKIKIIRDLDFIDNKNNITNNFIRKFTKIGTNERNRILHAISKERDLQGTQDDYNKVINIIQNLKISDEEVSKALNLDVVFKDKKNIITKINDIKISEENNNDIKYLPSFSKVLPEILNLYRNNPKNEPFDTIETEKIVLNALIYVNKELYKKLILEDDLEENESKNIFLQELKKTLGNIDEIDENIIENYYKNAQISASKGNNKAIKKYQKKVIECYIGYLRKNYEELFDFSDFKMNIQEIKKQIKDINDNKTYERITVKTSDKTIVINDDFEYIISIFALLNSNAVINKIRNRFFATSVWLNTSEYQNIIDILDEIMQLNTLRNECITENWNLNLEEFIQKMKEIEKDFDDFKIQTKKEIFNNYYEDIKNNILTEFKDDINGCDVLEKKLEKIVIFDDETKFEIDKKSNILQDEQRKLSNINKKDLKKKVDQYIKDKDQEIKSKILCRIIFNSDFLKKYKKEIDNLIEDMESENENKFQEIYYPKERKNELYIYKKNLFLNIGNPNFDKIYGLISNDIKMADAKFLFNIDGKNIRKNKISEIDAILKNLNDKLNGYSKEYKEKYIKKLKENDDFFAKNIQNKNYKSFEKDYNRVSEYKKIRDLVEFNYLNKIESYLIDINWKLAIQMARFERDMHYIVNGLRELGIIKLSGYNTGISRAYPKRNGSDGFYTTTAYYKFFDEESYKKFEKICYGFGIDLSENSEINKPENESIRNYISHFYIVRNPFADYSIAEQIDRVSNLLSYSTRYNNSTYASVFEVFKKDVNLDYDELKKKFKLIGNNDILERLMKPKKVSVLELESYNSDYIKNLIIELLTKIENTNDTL
Put plainly: EMSA; non-target reverse complement. The settings on record: tags: expressed as 6-His-MBP-TEV fusion, TEV-cleaved; direct repeat stem-loop. From the text: FIG. 119D Electrophoretic mobility shift assay (EMSA) evaluating affinity of the wild type LshC2c2-crRNA complex against a targeted (left) and a non-targeted (right) ssRNA substrate. The non-targeted ssRNA substrate is the reverse-complement of the targeted ssRNA. EDTA is supplemented to reaction condition to reduce any cleavage activity. FIG. 119E Electrophoretic mobility shift assay with LshC2c2(R1278A)-crRNA complex against on-target ssRNA and non-targeting complementary ssRNA (same substrate sequences as in D). FIG. 119B discloses SEQ ID NOS: 2090-2091, respectively, in order of appearance.
To determine if target binding and cleavage activity of LshC2c2 are likewise separable, electrophoretic mobility shift assays (EMSA) were performed on both the wild-type (FIG. 119D) and R1278A mutant LshC2c2 (FIG. 119E) in complex with crRNA.

B1: crRNA 14 ; ssRNA 10 (rc) (ssRNA ; ssRNA)
RNA 1: CCACCCCAAUAUCGAAGGGGACUAAAACUAGAUUGCUGUUCUACCAAGUAAUCCAU
RNA 2: CUUUAUGCUUCCGGCGUAGAUUGCUGUUCUACCAAGUAAUCCAUAUUCGAGCUCGAAUUCACUGGCCUAU
As to B1, the binding result is on record as “no binding”.
